Measured values reported in patent WO2019173771A1.

Target: human CD147 on human cell lines (KYSE-70, H292, LS174T and other human-derived cell lines) (human) (UniProt P35613)
Experiment: FACS on the human KYSE-70 esophageal epithelial cell line, Alexa Fluor 647 anti-human IgG

B1: humanized anti-human CD147 hu3A11 antibody (3A11 Lc1 / Hc1) (antibody, V domains shown)
VH: EVQLVESGGGLVQPGGSLRLSCAASGFTFSNYWMDWVRQAPGKGLEWVGEIRLKSYNYATHYAASVKGRFTISRDDSKNSVYLQMNSLKTEDTAVYYCTAAGTDYWGQGTLVTVSS
VL: DIQMTQSPSSLSASVGDRVTITCRASQSVRTDVGWYQQKPGKAPKLLIYYSSNRYTGVPSRFSGSGSGTDFTLTISSLQPEDFATYYCQQDYSSPYTFGQGTKLEIK
  Kd: 1.65 nM
